In US20130195866:

Biological target: T1, NFATc4 (nuclear factor of activated T cells), endogenous in mouse cortical neurons (UniProt Q8K120)
T1 sequence: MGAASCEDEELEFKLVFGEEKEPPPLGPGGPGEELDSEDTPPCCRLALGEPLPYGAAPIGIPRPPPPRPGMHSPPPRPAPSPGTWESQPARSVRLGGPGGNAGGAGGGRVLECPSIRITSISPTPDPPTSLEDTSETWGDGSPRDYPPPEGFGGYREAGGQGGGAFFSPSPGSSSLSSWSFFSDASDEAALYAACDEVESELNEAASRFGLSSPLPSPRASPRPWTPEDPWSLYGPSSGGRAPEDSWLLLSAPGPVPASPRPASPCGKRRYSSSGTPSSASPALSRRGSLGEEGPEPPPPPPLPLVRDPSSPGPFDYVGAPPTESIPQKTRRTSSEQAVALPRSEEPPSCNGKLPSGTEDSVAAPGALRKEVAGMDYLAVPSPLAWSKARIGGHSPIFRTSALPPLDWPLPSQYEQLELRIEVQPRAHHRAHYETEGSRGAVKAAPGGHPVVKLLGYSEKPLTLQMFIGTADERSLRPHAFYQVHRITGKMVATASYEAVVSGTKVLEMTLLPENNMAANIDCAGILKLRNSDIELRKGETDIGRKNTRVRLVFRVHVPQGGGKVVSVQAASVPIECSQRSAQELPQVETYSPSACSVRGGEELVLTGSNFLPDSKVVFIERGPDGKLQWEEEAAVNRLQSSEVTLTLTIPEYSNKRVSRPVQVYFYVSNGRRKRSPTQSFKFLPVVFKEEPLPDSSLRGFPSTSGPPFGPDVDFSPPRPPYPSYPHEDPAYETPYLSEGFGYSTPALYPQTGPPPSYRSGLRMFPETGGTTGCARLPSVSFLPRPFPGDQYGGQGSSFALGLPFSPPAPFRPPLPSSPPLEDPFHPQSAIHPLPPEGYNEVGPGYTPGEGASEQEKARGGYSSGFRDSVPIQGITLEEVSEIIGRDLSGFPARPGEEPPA

HA-tagged constitutively active calcineurin, CaNCA (mouse CaN amino acid residues 1-399, 45 kDa form)
NFATc4 nuclear distribution in neurons of injected mouse brain: CaNCA-expressing neurons showed high levels of NFATc4 nuclear distribution (data not shown)
